Assay results from patent publication US12099068B2, “Biomarkers for graft-versus-host disease” (Incyte Corporation, priority 2018, dated 2024).

B1: PTPRJ (protein, UniProt Q12913 36-1337, looked up)
Receptor-type …: AGGTPSPIPDPSVATVATGENGITQISSTAESFHKQNGTGTPQVETNTSEDGESSGANDSLRTPEQGSNGTDGASQKTPSSTGPSPVFDIKAVSISPTNVILTWKSNDTAASEYKYVVKHKMENEKTITVVHQPWCNITGLRPATSYVFSITPGIGNETWGDPRVIKVITEPIPVSDLRVALTGVRKAALSWSNGNGTASCRVLLESIGSHEELTQDSRLQVNISGLKPGVQYNINPYLLQSNKTKGDPLGTEGGLDASNTERSRAGSPTAPVHDESLVGPVDPSSGQQSRDTEVLLVGLEPGTRYNATVYSQAANGTEGQPQAIEFRTNAIQVFDVTAVNISATSLTLIWKVSDNESSSNYTYKIHVAGETDSSNLNVSEPRAVIPGLRSSTFYNITVCPVLGDIEGTPGFLQVHTPPVPVSDFRVTVVSTTEIGLAWSSHDAESFQMHITQEGAGNSRVEITTNQSIIIGGLFPGTKYCFEIVPKGPNGTEGASRTVCNRTVPSAVFDIHVVYVTTTEMWLDWKSPDGASEYVYHLVIESKHGSNHTSTYDKAITLQGLIPGTLYNITISPEVDHVWGDPNSTAQYTRPSNVSNIDVSTNTTAATLSWQNFDDASPTYSYCLLIEKAGNSSNATQVVTDIGITDATVTELIPGSSYTVEIFAQVGDGIKSLEPGRKSFCTDPASMASFDCEVVPKEPALVLKWTCPPGANAGFELEVSSGAWNNATHLESCSSENGTEYRTEVTYLNFSTSYNISITTVSCGKMAAPTRNTCTTGITDPPPPDGSPNITSVSHNSVKVKFSGFEASHGPIKAYAVILTTGEAGHPSADVLKYTYEDFKKGASDTYVTYLIRTEEKGRSQSLSEVLKYEIDVGNESTTLGYYNGKLEPLGSYRACVAGFTNITFHPQNKGLIDGAESYVSFSRYSDAVSLPQDPGVICGAVFGCIFGALVIVTVGGFIFWRKKRKDAKNNEVSFSQIKPKKSKLIRVENFEAYFKKQQADSNCGFAEEYEDLKLVGISQPKYAAELAENRGKNRYNNVLPYDISRVKLSVQTHSTDDYINANYMPGYHSKKDFIATQGPLPNTLKDFWRMVWEKNVYAIIMLTKCVEQGRTKCEEYWPSKQAQDYGDITVAMTSEIVLPEWTIRDFTVKNIQTSESHPLRQFHFTSWPDHGVPDTTDLLINFRYLVRDYMKQSPPESPILVHCSAGVGRTGTFIAIDRLIYQIENENTVDVYGIVYDLRMHRPLMVQTEDQYVFLNQCVLDIVRSQKDSKVDLIYQNTTAMTIYENLAPVTTFGKTNGYIA
B2: CNDP1 (protein, UniProt Q96KN2 27-507, looked up)
Beta-Ala-His dipeptidase: SPSPPPALLEKVFQYIDLHQDEFVQTLKEWVAIESDSVQPVPRFRQELFRMMAVAADTLQRLGARVASVDMGPQQLPDGQSLPIPPVILAELGSDPTKGTVCFYGHLDVQPADRGDGWLTDPYVLTEVDGKLYGRGATDNKGPVLAWINAVSAFRALEQDLPVNIKFIIEGMEEAGSVALEELVEKEKDRFFSGVDYIVISDNLWISQRKPAITYGTRGNSYFMVEVKCRDQDFHSGTFGGILHEPMADLVALLGSLVDSSGHILVPGIYDEVVPLTEEEINTYKAIHLDLEEYRNSSRVEKFLFDTKEEILMHLWRYPSLSIHGIEGAFDEPGTKTVIPGRVIGKFSIRLVPHMNVSAVEKQVTRHLEDVFSKRNSSNKMVVSMTLGLHPWIANIDDTQYLAAKRAIRTVFGTEPDMIRDGSTIPIAKMFQEIVHKSVVLIPLGAVDDGEHSQNEKINRWNYIEGTKLFAAFFLEMAQLH
B3: CES2 (protein, UniProt O00748 27-559, looked up)
Cocaine esterase: QDSASPIRTTHTGQVLGSLVHVKGANAGVQTFLGIPFAKPPLGPLRFAPPEPPESWSGVRDGTTHPAMCLQDLTAVESEFLSQFNMTFPSDSMSEDCLYLSIYTPAHSHEGSNLPVMVWIHGGALVFGMASLYDGSMLAALENVVVVIIQYRLGVLGFFSTGDKHATGNWGYLDQVAALRWVQQNIAHFGGNPDRVTIFGESAGGTSVSSLVVSPISQGLFHGAIMESGVALLPGLIASSADVISTVVANLSACDQVDSEALVGCLRGKSKEEILAINKPFKMIPGVVDGVFLPRHPQELLASADFQPVPSIVGVNNNEFGWLIPKVMRIYDTQKEMDREASQAALQKMLTLLMLPPTFGDLLREEYIGDNGDPQTLQAQFQEMMADSMFVIPALQVAHFQCSRAPVYFYEFQHQPSWLKNIRPPHMKADHGDELPFVFRSFFGGNYIKFTEEEEQLSRKMMKYWANFARNGNPNGEGLPHWPLFDQEEQYLQLNLQPAVGRALKAHRLQFWKKALPQKIQELEEPEERHTEL
B4: IDUA (protein, UniProt P35475 28-653, looked up)
Alpha-L-iduronidase: APHLVHVDAARALWPLRRFWRSTGFCPPLPHSQADQYVLSWDQQLNLAYVGAVPHRGIKQVRTHWLLELVTTRGSTGRGLSYNFTHLDGYLDLLRENQLLPGFELMGSASGHFTDFEDKQQVFEWKDLVSSLARRYIGRYGLAHVSKWNFETWNEPDHHDFDNVSMTMQGFLNYYDACSEGLRAASPALRLGGPGDSFHTPPRSPLSWGLLRHCHDGTNFFTGEAGVRLDYISLHRKGARSSISILEQEKVVAQQIRQLFPKFADTPIYNDEADPLVGWSLPQPWRADVTYAAMVVKVIAQHQNLLLANTTSAFPYALLSNDNAFLSYHPHPFAQRTLTARFQVNNTRPPHVQLLRKPVLTAMGLLALLDEEQLWAEVSQAGTVLDSNHTVGVLASAHRPQGPADAWRAAVLIYASDDTRAHPNRSVAVTLRLRGVPPGPGLVYVTRYLDNGLCSPDGEWRRLGRPVFPTAEQFRRMRAAEDPVAAAPRPLPAGGRLTLRPALRLPSLLLVHVCARPEKPPGQVTRLRALPLTQGQLVLVWSDEHVGSKCLWTYEIQFSQDGKAYTPVSRKPSTFNLFVFSPDTGAVSGSYRVRALDYWARPGPFSDPVPYLEVPVPRGPPSPGNP
B5: VSIG2 (protein, UniProt Q96IQ7 24-327, looked up)
V-set and immunoglobulin …: VEVKVPTEPLSTPLGKTAELTCTYSTSVGDSFALEWSFVQPGKPISESHPILYFTNGHLYPTGSKSKRVSLLQNPPTVGVATLKLTDVHPSDTGTYLCQVNNPPDFYTNGLGLINLTVLVPPSNPLCSQSGQTSVGGSTALRCSSSEGAPKPVYNWVRLGTFPTPSPGSMVQDEVSGQLILTNLSLTSSGTYRCVATNQMGSASCELTLSVTEPSQGRVAGALIGVLLGVLLLSVAAFCLVRFQKERGKKPKETYGGSDLREDAIAPGISEHTCMRADSSKGFLERPSSASTVTTTKSKLPMVV
B6: PRELP (protein, UniProt P51888 21-382, looked up)
Prolargin: QPTRRPRPGTGPGRRPRPRPRPTPSFPQPDEPAEPTDLPPPLPPGPPSIFPDCPRECYCPPDFPSALYCDSRNLRKVPVIPPRIHYLYLQNNFITELPVESFQNATGLRWINLDNNRIRKIDQRVLEKLPGLVFLYMEKNQLEEVPSALPRNLEQLRLSQNHISRIPPGVFSKLENLLLLDLQHNRLSDGVFKPDTFHGLKNLMQLNLAHNILRKMPPRVPTAIHQLYLDSNKIETIPNGYFKSFPNLAFIRLNYNKLTDRGLPKNSFNISNLLVLHLSHNRISSVPAINNRLEHLYLNNNSIEKINGTQICPNDLVAFHDFSSDLENVPHLRYLRLDGNYLKPPIPLDLMMCFRLLQSVVI
B7: HO-1 (protein, UniProt P09601 1-288, looked up)
Heme oxygenase 1: MERPQPDSMPQDLSEALKEATKEVHTQAENAEFMRNFQKGQVTRDGFKLVMASLYHIYVALEEEIERNKESPVFAPVYFPEELHRKAALEQDLAFWYGPRWQEVIPYTPAMQRYVKRLHEVGRTEPELLVAHAYTRYLGDLSGGQVLKKIAQKALDLPSSGEGLAFFTFPNIASATKFKQLYRSRMNSLEMTPAVRQRVIEEAKTAFLLNIQLFEELQELLTHDTKDQSPSRAPGLRQRASNKVQDSAPVETPRGKPPLNTRSQAPLLRWVLTLSFLVATVAVGLYAM
B8: SIRT2 (protein, UniProt Q8IXJ6 2-389, looked up)
NAD-dependent protein …: AEPDPSHPLETQAGKVQEAQDSDSDSEGGAAGGEADMDFLRNLFSQTLSLGSQKERLLDELTLEGVARYMQSERCRRVICLVGAGISTSAGIPDFRSPSTGLYDNLEKYHLPYPEAIFEISYFKKHPEPFFALAKELYPGQFKPTICHYFMRLLKDKGLLLRCYTQNIDTLERIAGLEQEDLVEAHGTFYTSHCVSASCRHEYPLSWMKEKIFSEVTPKCEDCQSLVKPDIVFFGESLPARFFSCMQSDFLKVDLLLVMGTSLQVQPFASLISKAPLSTPRLLINKEKAGQSDPFLGMIMGLGGGMDFDSKKAYRDVAWLGECDQGCLALAELLGWKKELEDLVRREHASIDAQSGAGVPNPSTSASPKKSPPPAKDEARTTEREKPQ
B9: CX3CL1 (protein, UniProt P78423 25-397, looked up)
Fractalkine: QHHGVTKCNITCSKMTSKIPVALLIHYQQNQASCGKRAIILETRQHRLFCADPKEQWVKDAMQHLDRQAAALTRNGGTFEKQIGEVKPRTTPAAGGMDESVVLEPEATGESSSLEPTPSSQEAQRALGTSPELPTGVTGSSGTRLPPTPKAQDGGPVGTELFRVPPVSTAATWQSSAPHQPGPSLWAEAKTSEAPSTQDPSTQASTASSPAPEENAPSEGQRVWGQGQSPRPENSLEREEMGPVPAHTDAFQDWGPGSMAHVSVVPVSSEGTPSREPVASGSWTPKAEEPIHATMDPQRLGVLITPVPDAQAATRRQAVGLLAFLGLLFCLGVAMFTYQSLQGCPRKMAGEMAEGLRYIPRSCGSNSYVLVPV
B10: SIRPB1 (protein, UniProt O00241 30-398, looked up)
Signal-regulatory protein …: EDELQVIQPEKSVSVAAGESATLRCAMTSLIPVGPIMWFRGAGAGRELIYNQKEGHFPRVTTVSELTKRNNLDFSISISNITPADAGTYYCVKFRKGSPDDVEFKSGAGTELSVRAKPSAPVVSGPAVRATPEHTVSFTCESHGFSPRDITLKWFKNGNELSDFQTNVDPAGDSVSYSIHSTARVVLTRGDVHSQVICEIAHITLQGDPLRGTANLSEAIRVPPTLEVTQQPMRAENQANVTCQVSNFYPRGLQLTWLENGNVSRTETASTLIENKDGTYNWMSWLLVNTCAHRDDVVLTCQVEHDGQQAVSKSYALEISAHQKEHGSDITHEAALAPTAPLLVALLLGPKLLLVVGVSAIYICWKQKA

Test system: plasma proteins
Experiment: Plasma proteins modulated between baseline and day 28 in responders (CR, VGPR, PR; n = 19), Example 6 (Table 13)
Assay type: in vivo, human
Settings: plasma protein (OLINK NPX); responders (CR, VGPR, PR; n = 19); itacitinib 200 mg or 300 mg QD with corticosteroids; day 28 vs baseline
In short: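 Plasma at baseline/screening and day 28 profiled for >1000 proteins by OLINK proximity extension assay, reported as NPX (log2). Steroid-naive and steroid-refractory patients pooled. Paired and unpaired t tests, ANOVA and Pearson correlation applied; significance at P<0.05.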

Molecule	Fold Change, Decreased Expression from Baseline to Day 28	Fold Change, Increased Expression from Baseline to Day 28
B1	−1.7421	
B2		1.3856
B3		1.4212
B4	−1.3887	
B5		1.2163
B6		1.1833
B7		1.3293
B8	−1.6014	
B9		1.5454
B10	−1.3991	
